From patent US20250049939A1 (TUBULIS, published 2025)

Experiments:
[1] = biological target: T1, murine FLT3 expressed on Ba/F3 cells (mouse, UniProt Q00342 28-1000); experiment: flow cytometry, cell surface binding to Ba/F3 pMIY cells expressing mFLT3wt, MFI ratio normalized to IgG1, mean ± s.d. of n=3
T1 construct: whole, on cells; also called mFLT3 wt; mFLT3
T1 sequence (looked up): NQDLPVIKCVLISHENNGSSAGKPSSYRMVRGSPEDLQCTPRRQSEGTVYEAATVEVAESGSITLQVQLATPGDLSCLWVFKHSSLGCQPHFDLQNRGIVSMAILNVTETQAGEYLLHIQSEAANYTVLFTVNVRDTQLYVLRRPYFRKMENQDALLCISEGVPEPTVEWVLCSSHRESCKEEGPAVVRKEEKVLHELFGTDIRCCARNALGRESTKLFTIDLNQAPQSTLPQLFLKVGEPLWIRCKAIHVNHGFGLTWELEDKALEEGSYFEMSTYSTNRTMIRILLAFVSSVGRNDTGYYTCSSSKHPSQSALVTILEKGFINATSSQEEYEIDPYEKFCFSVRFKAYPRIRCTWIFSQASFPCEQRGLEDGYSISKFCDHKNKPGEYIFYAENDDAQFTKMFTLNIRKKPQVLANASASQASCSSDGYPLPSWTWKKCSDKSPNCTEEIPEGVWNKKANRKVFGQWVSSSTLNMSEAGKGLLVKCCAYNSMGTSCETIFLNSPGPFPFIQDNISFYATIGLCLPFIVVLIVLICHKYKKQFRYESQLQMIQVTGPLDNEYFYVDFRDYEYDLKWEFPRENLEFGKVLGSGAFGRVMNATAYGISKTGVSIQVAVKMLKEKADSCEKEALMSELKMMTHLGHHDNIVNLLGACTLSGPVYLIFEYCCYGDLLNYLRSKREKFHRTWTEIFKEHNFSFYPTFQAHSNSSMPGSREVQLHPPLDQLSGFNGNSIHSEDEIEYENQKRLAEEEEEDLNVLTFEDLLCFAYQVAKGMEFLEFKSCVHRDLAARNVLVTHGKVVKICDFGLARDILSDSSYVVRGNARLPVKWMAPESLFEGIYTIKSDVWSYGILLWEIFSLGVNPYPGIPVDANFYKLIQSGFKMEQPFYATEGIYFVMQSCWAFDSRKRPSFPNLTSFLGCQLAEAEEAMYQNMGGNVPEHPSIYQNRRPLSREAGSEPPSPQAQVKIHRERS

[2] = biological target: T2, rat FLT3 expressed on Ba/F3 cells (rat, UniProt A0A0G2JW59 27-982); experiment: flow cytometry, cell surface binding to Ba/F3 pMIY cells expressing rFLT3wt, MFI ratio normalized to IgG1, mean ± s.d. of n=3
T2 construct: whole, on cells
T2 sequence: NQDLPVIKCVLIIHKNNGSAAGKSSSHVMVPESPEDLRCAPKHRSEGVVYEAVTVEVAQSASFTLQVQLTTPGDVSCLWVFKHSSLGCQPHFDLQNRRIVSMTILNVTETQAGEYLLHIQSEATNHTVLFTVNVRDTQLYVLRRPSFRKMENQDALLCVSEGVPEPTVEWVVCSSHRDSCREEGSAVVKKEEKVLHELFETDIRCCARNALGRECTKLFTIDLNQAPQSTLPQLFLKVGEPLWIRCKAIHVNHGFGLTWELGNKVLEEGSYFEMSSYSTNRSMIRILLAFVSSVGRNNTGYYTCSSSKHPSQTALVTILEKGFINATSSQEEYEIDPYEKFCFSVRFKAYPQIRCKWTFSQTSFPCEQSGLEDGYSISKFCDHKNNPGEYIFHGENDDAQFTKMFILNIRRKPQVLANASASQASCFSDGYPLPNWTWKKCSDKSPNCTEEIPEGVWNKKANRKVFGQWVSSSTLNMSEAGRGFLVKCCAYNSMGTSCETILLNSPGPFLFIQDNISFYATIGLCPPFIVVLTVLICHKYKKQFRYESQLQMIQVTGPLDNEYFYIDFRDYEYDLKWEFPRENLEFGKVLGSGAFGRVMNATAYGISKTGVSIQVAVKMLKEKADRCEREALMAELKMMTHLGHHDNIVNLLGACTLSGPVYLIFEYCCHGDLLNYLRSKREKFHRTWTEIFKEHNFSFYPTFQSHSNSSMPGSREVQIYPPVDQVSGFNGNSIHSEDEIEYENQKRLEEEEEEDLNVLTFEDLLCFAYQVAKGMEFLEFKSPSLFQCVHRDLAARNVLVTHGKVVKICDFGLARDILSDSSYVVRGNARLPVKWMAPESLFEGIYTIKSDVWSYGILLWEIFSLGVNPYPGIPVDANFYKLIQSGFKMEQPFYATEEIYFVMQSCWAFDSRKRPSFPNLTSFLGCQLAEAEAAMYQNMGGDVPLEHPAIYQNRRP

[3] = biological target: T3, CSF1R on Ba/F3 cells (UniProt P07333 20-972, limits assumed); experiment: flow cytometry, cell surface binding to Ba/F3 pMIY cells expressing CSF-1R, MFI ratio normalized to IgG1, mean ± s.d. of n=3
T3 construct: whole, on cells
T3 sequence (P07333 20-972 limits assumed): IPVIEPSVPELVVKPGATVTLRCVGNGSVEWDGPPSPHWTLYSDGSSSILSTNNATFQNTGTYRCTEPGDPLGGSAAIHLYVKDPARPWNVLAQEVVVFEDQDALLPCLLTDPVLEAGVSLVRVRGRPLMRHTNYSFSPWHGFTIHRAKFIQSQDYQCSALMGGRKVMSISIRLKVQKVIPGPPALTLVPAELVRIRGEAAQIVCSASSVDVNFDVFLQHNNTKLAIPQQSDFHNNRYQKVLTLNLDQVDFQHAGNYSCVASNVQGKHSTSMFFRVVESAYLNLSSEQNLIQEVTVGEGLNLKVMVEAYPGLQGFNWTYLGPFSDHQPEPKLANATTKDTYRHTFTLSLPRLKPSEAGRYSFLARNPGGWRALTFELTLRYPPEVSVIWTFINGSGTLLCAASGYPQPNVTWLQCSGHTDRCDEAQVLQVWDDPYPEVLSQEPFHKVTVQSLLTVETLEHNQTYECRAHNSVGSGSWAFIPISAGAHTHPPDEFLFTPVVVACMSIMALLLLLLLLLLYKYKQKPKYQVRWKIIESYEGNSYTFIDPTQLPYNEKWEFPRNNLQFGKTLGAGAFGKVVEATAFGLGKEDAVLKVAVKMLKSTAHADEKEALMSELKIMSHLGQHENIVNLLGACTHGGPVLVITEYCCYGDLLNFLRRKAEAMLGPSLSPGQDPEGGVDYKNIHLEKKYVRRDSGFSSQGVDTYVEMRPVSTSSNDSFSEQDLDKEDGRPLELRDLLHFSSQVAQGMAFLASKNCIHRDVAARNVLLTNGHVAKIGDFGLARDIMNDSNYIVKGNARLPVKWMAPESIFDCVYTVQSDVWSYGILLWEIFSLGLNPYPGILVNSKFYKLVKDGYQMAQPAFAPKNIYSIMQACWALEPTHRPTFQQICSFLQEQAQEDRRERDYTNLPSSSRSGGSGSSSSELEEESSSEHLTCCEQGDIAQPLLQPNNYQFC

binding result [1]: no binding
binding result [2]: no binding
binding result [3]: no binding
B1: Humanized clone 3 of 20D9 (VH3 + VK1) (antibody, human IgG1, kappa)
heavy: not shown
light: DIQMTQSPSVLSASVGDRVTINCRASQNINKELNWYQQKLGEAPKLLIYNTNNLQSGVPSRFSGSGSGTDYTLTISSLQPEDVATYFCFQHKSWPLTFGSGTKLEIKRTVAAPSVFIFPPSDEQLKSGTASVVCLLNNFYPREAKVQWKVDNALQSGNSQESVTEQDSKDSTYSLSSTLTLSKADYEKHKVYACEVTHQGLSSPVTKSFNRGEC
notes: also called candidate #3; #3 mab
